# From patent US9289381B2, “Stabilization and storage of biological pharmaceutical compositions” (The University of North Carolina at Charlotte, priority 2009, dated 2016)
# Where “and” joins values, the source holds several entries; their conditions need not be identical. Equal values may be shown once.
# Test: Microcalorimetry (DSC) of HEWL dispersions stored in 80% w/w CDHP or 0.1M NaOAc
# Type: physicochemical
# Parameters: Thermal transition midpoint temperature of HEWL: unit not given here
# Procedure: The samples were formulated in 2 ml silanized glass vials to reduce protein-surface interactions, covered with cap and septa, wrapped with parafilm to ensure no drying out of the sample, and stored away from sunlight. They were stirred for at least 24 hours until a homogeneous distribution of protein was obtained. […] The 35 silanized vials were exposed to UV light for 24 hours to ensure sterility. Control samples at equivalent concentrations were also prepared in triplicates in 0.1M NaOAc buffer (pH 4). Samples were tested for thermal stability via microcalorimetry and functional activity via the micrococcus lysodeikticus assay at monthly intervals.
# A MicroCal VP-DSC microcalorimeter was used to assess thermal structural stability of all samples. Baseline repeatability was established with a minimum of 5 buffer-buffer scans. […] HEWL solutions were tested similarly with no dilution of the samples. Between samples, during the filling period of 15° C. to 25° C., the sample cell of the DSC was flushed with at least 25 ml distilled H2O, then at least 15 ml NaOAc to ensure no sample residue remained behind. Thermal profiles, enthalpy changes, and transition temperatures were obtained with Origin software.
# All formulations were diluted to 0.1-0.5 mg/ml for testing. This allows one to observe how well protein thermal stability and structural integrity is maintained following storage and then dilution into a solution of similar composition as the environment of the body.
# [1] = stored at 10 mg/ml in Choline dhp, 1 month
# [2] = stored at 10 mg/ml in Choline dhp, 2 months
# [3] = stored at 10 mg/ml in Choline dhp, 3 months
# [4] = stored at 10 mg/ml in Choline dhp, 4 months
# [5] = stored at 10 mg/ml in Choline dhp, 5 months
# [6] = stored at 100 mg/ml in Choline dhp, 0 months
# [7] = stored at 100 mg/ml in Choline dhp, 1 month
# [8] = stored at 100 mg/ml in Choline dhp, 2 months
substance,measurement,setting,value
"HEWL: hen egg white lysozyme (HEWL), a well characterized protein, purchased from Worthington Biochem","enthalpic change during unfolding at 1 month, % of the maximum (average)",10 mg/ml HEWL control formulation (0.1M NaOAc),64%
same,"enthalpic change during unfolding at 1 month, % of the maximum (average)",10 mg/ml HEWL in 80% w/w CDHP,87%
same,"enthalpic change during unfolding at 1 month, % of the maximum (average)",100 mg/ml HEWL control formulation (0.1M NaOAc),60%
same,"enthalpic change during unfolding at 1 month, % of the maximum (average)",100 mg/ml HEWL in 80% w/w CDHP,85%
same,"shelf-life (fraction of folded protein, Cp signal)","80% CDHP wt/wt vs 0.1M sodium acetate pH 4.0, 1-3 months at room temperature",superior shelf-life
same,drop of Tm over 5 months,HEWL control formulations (0.1M NaOAc),between one and two degrees
same,drop of Tm over 5 months,HEWL formulated in 80% w/w CDHP,less than a degree
same,Enthalpy of unfolding of HEWL,"stored at 10 mg/ml in 0.1M NaOAc, 0 months",99.49 kcal/mol and 102.53 kcal/mol and 105.48 kcal/mol
same,Enthalpy of unfolding of HEWL,"stored at 10 mg/ml in 0.1M NaOAc, 1 month",71.64 kcal/mol and 67.32 kcal/mol and 58.77 kcal/mol
same,Enthalpy of unfolding of HEWL,"stored at 10 mg/ml in 0.1M NaOAc, 2 months",53.856 kcal/mol and 52.812 kcal/mol and 56.88 kcal/mol
same,Enthalpy of unfolding of HEWL,"stored at 10 mg/ml in 0.1M NaOAc, 3 months",39.168 kcal/mol and 40.734 kcal/mol and 40.69 kcal/mol
same,Enthalpy of unfolding of HEWL,"stored at 10 mg/ml in 0.1M NaOAc, 4 months",24.8706 kcal/mol and 36.9316 kcal/mol and 26.9568 kcal/mol
same,Enthalpy of unfolding of HEWL,"stored at 10 mg/ml in 0.1M NaOAc, 5 months",18.4 kcal/mol and 20.9 kcal/mol and 22.4 kcal/mol
same,Enthalpy of unfolding of HEWL,"stored at 10 mg/ml in Choline dhp (80% w/w CDHP), 0 months",102 kcal/mol and 101.7 kcal/mol and 108.3 kcal/mol
same,Thermal transition midpoint temperature of HEWL,"stored at 10 mg/ml in Choline dhp, 0 months",346.71 and 346.74
same,Enthalpy of unfolding of HEWL,[1],90.932 kcal/mol and 90.855 kcal/mol and 89.61 kcal/mol
same,Thermal transition midpoint temperature of HEWL,[1],346.7 and 346.62 and 346.75
same,Enthalpy of unfolding of HEWL,[2],80.771 kcal/mol and 79.236 kcal/mol and 79.113 kcal/mol
same,Thermal transition midpoint temperature of HEWL,[2],346.84 and 346.81 and 346.39
same,Enthalpy of unfolding of HEWL,[3],56.64 kcal/mol and 55.227 kcal/mol and 63.418 kcal/mol
same,Thermal transition midpoint temperature of HEWL,[3],346.98 and 346.52 and 346.35
same,Enthalpy of unfolding of HEWL,[4],46.7208 kcal/mol and 47.358 kcal/mol and 51.147 kcal/mol
same,Thermal transition midpoint temperature of HEWL,[4],346.47 and 346.43 and 346.5
same,Enthalpy of unfolding of HEWL,[5],36.9 kcal/mol and 43 kcal/mol
same,Thermal transition midpoint temperature of HEWL,[5],346.27 and 346.37 and 346.21
same,Thermal transition midpoint temperature of HEWL,"stored at 10 mg/ml in NaOAc, 0 months",346.68 and 346.77 and 347.14
same,Thermal transition midpoint temperature of HEWL,"stored at 10 mg/ml in NaOAc, 1 month",345.79 and 345.93 and 345.94
same,Thermal transition midpoint temperature of HEWL,"stored at 10 mg/ml in NaOAc, 2 months",345.85 and 345.9 and 345.8
same,Thermal transition midpoint temperature of HEWL,"stored at 10 mg/ml in NaOAc, 3 months",345.72 and 345.9 and 345.48
same,Thermal transition midpoint temperature of HEWL,"stored at 10 mg/ml in NaOAc, 4 months",345.17 and 345.1 and 345.21
same,Thermal transition midpoint temperature of HEWL,"stored at 10 mg/ml in NaOAc, 5 months",345.13 and 345.05 and 345.15
same,Enthalpy of unfolding of HEWL,"stored at 100 mg/ml in 0.1M NaOAc, 0 months",101.14 kcal/mol and 105.2 kcal/mol and 108.2 kcal/mol
same,Enthalpy of unfolding of HEWL,"stored at 100 mg/ml in 0.1M NaOAc, 1 month",62.01 kcal/mol and 56.61 kcal/mol and 71.973 kcal/mol
same,Enthalpy of unfolding of HEWL,"stored at 100 mg/ml in 0.1M NaOAc, 2 months",58.311 kcal/mol and 60.858 kcal/mol and 54.729 kcal/mol
same,Enthalpy of unfolding of HEWL,"stored at 100 mg/ml in 0.1M NaOAc, 3 months",46.606 kcal/mol and 46.506 kcal/mol and 46.224 kcal/mol
same,Enthalpy of unfolding of HEWL,"stored at 100 mg/ml in 0.1M NaOAc, 4 months",30.8889 kcal/mol and 32.07177 kcal/mol and 29.8026 kcal/mol
same,Enthalpy of unfolding of HEWL,"stored at 100 mg/ml in 0.1M NaOAc, 5 months",26.8 kcal/mol and 29.1 kcal/mol and 23.9 kcal/mol
same,Enthalpy of unfolding of HEWL,[6],107.1 kcal/mol and 100.7 kcal/mol and 108.3 kcal/mol
same,Thermal transition midpoint temperature of HEWL,[6],347.45 and 347.05 and 347.11
same,Enthalpy of unfolding of HEWL,[7],89.97 kcal/mol and 89.606 kcal/mol and 87.876 kcal/mol
same,Thermal transition midpoint temperature of HEWL,[7],346.41 and 346.54 and 346.44
same,Enthalpy of unfolding of HEWL,[8],75.132 kcal/mol and 76.824 kcal/mol and 77.544 kcal/mol
same,Thermal transition midpoint temperature of HEWL,[8],346.42 and 346.43 and 346.47
